From patent US20050130287A1, “Purifying process of soluble proteins of the l.obliqua bristles through prothrombin activation: process for a partial determination of the amino acids sequence of the prothrombin activator; process for determining the prothrombin activation of fraction II, n-terminal and internal fragments sequences” (priority 2002, published 2005)

What was measured:
[1] = target: prothrombin (UniProt P00734)
[2] = test system: Factor X
[3] = target: purified human fibrinogen (UniProt P02671)
[4] = test system: T1, Abz-YQTFFNPRTFGSQ-EDDnp
T1 sequence: YQTFFNPRTFGSQ

“Lonomia obliqua Prothrombin Activator Protease (Lopap)” was tested, and the Coagulation Time (S) of fibrinogen, with Ca2+ [1] was 60 s, the Coagulation Time (S) of fibrinogen, without Ca2+ [1] was 240 s and the “Factor X activation, hydrolysis of S-2765” value [2] was “Lopap did not present capacity of activating factor X”. The “Factor X activation, hydrolysis of S-2765 (p-nitroaniline formed)” value [2] was “When Factor X (30 nM) was added to the experiment, the substrate hydrolysis obtained was of 2,6 µM”, the “Coagulation Time (S) of fibrinogen, without Factor II” value [3] was “Lopap + / F II - / FG +: >1200” and the Kcat [4] was “Kcat 5,32 sec^-1”. The Kcat/Kmapp [4] was “Kcat/K mapp 1,2×106 M^-1 sec -1” and the Kmapp [4] was “Kmapp 4,5 µM”.
Factor Xa was tested, and the Coagulation Time (S) of fibrinogen, with Ca2+ [1] was 120 s.
